Measured values as given in patent US20090130692A1.

Target: bovine pancreatic trypsin (bovine) (UniProt P00760)
Test: inhibition of bovine trypsin, substrate Boc-Leu-Gly-Arg-pNA, tight-binding fit (Morrison); apparent Ki (Kiapp)

Sequence of bovine pancreatic trypsin (bovine) (P00760 24-246): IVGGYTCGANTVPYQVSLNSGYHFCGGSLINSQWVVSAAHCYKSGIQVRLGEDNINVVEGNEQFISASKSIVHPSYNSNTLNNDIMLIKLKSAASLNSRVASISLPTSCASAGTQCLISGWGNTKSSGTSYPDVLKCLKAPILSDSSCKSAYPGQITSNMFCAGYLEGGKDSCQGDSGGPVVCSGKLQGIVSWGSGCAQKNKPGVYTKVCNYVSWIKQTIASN

Row | Ki | Substance
1 | 71 nM | barnase′-McoEeTI fusion protein (from UniProt P00648 48-157)
2 | 9 nM | barnase′-EETI-II fusion protein (from UniProt P00648 48-157)
